The supplement of paper PMC10065799, “High-throughput profiling of sequence recognition by tyrosine kinases and SH2 domains using bacterial peptide display” (eLife, 2023)

Legend:
[1] = tested on: AncSZ; assay: phosphorylation enrichment, bacterial display (enrichment ratio); higher = better substrate or ligand; peptides without Tyr show the background
[2] = biological target: EPHB1 (UniProt P54762); assay: as above
[3] = biological target: EPHB2 (UniProt P29323); assay: as above
[4] = biological target: FGFR1 (UniProt P11362); assay: as above
[5] = biological target: FGFR3 (UniProt P22607); assay: as above
[6] = tested on: Fer (mouse); assay: as above
[7] = biological target: Fes (UniProt P07332); assay: as above
[8] = biological target: Fyn (UniProt P06241); assay: as above
[9] = biological target: Hck (UniProt P08631); assay: as above
Chain of Hck (P08631 whole entry, looked up): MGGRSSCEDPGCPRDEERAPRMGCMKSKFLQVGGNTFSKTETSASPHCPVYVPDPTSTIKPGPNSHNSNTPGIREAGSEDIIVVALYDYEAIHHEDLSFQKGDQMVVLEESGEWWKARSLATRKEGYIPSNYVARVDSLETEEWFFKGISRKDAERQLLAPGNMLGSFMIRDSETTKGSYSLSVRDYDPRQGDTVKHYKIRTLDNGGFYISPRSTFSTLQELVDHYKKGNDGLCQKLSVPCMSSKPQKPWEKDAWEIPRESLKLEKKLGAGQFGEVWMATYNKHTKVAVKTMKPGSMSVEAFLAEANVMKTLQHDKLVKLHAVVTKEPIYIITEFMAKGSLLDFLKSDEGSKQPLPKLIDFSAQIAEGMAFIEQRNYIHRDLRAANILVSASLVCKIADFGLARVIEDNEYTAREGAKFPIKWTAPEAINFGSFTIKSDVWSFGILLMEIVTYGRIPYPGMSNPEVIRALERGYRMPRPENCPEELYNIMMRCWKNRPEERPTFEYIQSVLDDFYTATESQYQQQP

[10] = biological target: Jak2 (UniProt O60674); assay: as above
Chain of Jak2 (O60674 whole entry, looked up): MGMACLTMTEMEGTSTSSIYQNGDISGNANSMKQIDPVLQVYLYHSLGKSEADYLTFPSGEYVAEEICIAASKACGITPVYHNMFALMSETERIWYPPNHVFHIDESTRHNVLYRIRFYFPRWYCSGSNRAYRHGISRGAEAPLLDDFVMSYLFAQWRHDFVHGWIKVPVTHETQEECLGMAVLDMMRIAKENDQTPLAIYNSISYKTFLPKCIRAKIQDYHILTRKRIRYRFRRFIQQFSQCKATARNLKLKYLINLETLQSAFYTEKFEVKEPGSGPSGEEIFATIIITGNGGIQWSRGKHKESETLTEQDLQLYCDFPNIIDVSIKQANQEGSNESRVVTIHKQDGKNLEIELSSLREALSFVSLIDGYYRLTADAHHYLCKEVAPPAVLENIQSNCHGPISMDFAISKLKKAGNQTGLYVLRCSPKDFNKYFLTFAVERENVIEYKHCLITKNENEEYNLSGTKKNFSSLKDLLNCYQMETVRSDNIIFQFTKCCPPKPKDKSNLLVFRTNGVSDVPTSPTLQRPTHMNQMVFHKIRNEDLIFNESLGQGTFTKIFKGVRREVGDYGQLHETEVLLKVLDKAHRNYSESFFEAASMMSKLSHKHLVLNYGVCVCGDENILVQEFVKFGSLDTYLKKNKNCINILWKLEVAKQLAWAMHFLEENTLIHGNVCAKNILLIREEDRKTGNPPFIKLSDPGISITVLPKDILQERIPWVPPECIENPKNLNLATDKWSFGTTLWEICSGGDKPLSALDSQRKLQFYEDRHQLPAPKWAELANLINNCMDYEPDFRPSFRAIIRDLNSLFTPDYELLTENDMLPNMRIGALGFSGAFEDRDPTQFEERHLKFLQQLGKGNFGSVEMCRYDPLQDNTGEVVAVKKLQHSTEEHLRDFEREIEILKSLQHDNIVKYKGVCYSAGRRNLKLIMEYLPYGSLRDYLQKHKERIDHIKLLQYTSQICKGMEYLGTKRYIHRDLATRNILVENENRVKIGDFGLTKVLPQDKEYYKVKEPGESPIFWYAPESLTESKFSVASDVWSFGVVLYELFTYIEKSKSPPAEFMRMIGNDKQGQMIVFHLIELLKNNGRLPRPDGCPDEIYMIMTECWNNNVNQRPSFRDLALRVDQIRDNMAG

[11] = biological target: MERTK (UniProt Q12866); assay: as above
Chain of MERTK (Q12866 whole entry, looked up): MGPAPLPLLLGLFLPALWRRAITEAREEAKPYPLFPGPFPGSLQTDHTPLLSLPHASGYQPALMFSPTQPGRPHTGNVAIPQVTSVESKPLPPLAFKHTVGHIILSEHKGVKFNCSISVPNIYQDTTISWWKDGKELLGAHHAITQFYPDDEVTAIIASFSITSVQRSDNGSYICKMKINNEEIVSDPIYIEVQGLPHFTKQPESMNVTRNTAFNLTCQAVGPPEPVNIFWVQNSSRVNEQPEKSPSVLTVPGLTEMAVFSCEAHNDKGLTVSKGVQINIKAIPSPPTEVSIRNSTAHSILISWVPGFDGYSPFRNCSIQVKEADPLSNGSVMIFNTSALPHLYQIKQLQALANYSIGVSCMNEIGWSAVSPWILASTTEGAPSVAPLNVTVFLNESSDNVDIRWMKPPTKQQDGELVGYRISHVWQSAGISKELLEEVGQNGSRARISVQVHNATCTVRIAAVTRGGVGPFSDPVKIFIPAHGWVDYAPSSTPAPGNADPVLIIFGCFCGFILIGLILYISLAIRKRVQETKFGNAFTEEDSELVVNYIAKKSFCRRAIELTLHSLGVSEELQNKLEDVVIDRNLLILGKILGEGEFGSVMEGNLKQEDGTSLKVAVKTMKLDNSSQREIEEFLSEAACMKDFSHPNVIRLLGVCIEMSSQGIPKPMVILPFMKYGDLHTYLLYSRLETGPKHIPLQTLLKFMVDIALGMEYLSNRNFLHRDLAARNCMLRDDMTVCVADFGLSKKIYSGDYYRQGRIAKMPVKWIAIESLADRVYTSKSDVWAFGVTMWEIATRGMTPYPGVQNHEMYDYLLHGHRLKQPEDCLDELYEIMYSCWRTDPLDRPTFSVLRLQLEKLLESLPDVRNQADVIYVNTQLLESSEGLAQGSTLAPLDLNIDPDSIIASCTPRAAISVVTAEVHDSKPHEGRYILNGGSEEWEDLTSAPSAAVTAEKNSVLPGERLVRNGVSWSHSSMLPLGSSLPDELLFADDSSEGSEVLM

[12] = tested on: c-Abl (mouse); assay: as above
[13] = tested on: c-Src; assay: as above
[14] = biological target: Grb2 SH2 (UniProt P62993); assay: SH2 binding enrichment of the phosphorylated peptide, bacterial display (enrichment ratio); higher = better substrate or ligand; peptides without Tyr show the background
Chain of Grb2 SH2 (P62993 whole entry, looked up): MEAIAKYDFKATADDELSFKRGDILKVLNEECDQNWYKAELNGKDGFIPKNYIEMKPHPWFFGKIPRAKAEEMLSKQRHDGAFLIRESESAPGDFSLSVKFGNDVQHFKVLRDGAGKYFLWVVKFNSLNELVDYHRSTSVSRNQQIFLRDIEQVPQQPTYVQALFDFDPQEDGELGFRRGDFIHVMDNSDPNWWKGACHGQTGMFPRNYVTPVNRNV

[15] = biological target: SHP2-C SH2; assay: as above
[16] = biological target: c-Src SH2; assay: as above
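Throughout, for SH2 binding enrichment of the phosphorylated peptide, bacterial display: peptide library displayed on the E. coli surface as eCPX fusions, selected cells deep-sequenced, score is each peptide's frequency after selection divided by its frequency in the input.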
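Throughout, for phosphorylation enrichment, bacterial display: 11-residue human phosphosite peptides and single-mutation variants displayed on the E. coli surface, counted by deep sequencing, each peptide's frequency after selection divided by its frequency in the unselected input library; frequency after pTyr selection over input frequency; kinase dosed for 20-30% of maximal phosphorylation in three min.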

Chain of EPHB1 (P54762 whole entry, looked up): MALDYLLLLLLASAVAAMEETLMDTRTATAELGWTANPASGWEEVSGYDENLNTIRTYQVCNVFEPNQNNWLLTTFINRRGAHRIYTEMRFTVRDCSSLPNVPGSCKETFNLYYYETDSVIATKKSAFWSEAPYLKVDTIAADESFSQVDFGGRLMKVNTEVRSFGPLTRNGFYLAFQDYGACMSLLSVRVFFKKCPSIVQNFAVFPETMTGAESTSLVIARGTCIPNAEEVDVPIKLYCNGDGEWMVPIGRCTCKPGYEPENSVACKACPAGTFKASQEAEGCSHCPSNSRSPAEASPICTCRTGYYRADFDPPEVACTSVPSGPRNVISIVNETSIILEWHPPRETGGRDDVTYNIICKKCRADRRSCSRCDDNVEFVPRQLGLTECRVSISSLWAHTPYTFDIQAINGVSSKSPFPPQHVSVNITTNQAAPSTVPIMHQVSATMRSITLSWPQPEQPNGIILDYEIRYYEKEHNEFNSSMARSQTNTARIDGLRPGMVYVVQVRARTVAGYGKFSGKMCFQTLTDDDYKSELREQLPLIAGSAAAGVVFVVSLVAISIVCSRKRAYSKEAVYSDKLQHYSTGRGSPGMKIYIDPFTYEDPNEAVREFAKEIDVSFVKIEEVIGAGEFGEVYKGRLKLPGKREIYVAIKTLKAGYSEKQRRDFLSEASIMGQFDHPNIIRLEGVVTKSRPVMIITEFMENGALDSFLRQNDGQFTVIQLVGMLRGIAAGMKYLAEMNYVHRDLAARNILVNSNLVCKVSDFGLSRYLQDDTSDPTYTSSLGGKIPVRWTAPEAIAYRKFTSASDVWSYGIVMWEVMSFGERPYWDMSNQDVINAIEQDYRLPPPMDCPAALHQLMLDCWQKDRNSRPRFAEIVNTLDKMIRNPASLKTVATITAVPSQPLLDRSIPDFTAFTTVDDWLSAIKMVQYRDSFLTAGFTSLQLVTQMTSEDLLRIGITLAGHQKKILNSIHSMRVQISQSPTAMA
Chain of EPHB2 (P29323 whole entry, looked up): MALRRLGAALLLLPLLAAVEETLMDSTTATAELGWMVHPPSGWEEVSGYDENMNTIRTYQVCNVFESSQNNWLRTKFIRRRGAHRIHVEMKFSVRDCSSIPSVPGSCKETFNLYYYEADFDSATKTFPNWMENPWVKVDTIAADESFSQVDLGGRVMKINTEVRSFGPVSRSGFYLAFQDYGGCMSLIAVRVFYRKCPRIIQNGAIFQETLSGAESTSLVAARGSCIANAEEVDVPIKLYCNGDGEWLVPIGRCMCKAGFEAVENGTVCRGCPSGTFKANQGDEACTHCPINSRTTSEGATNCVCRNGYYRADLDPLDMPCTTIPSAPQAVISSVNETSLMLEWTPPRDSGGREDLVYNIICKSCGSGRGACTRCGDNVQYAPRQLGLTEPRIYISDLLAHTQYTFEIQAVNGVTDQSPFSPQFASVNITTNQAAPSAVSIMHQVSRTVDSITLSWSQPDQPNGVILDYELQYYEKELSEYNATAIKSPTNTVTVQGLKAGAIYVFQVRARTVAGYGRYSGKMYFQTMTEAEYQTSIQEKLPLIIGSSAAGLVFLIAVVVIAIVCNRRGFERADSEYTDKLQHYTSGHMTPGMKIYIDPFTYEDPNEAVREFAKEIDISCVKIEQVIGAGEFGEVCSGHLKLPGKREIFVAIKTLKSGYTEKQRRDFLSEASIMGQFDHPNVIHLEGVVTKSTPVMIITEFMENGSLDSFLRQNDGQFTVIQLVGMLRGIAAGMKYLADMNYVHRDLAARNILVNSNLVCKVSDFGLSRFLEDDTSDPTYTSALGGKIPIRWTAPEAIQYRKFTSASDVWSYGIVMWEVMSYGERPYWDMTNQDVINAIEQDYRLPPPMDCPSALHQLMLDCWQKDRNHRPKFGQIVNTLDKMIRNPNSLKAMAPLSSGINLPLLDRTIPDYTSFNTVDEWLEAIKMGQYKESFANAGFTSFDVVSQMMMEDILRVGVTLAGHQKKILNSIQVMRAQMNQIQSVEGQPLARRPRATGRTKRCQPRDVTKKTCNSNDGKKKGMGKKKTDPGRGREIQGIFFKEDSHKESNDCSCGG

| Sequence | phosphorylation enrichment [1] | phosphorylation enrichment [2] | phosphorylation enrichment [3] | phosphorylation enrichment [4] | phosphorylation enrichment [5] | phosphorylation enrichment [6] | phosphorylation enrichment [7] | phosphorylation enrichment [8] | phosphorylation enrichment [9] | phosphorylation enrichment [10] | phosphorylation enrichment [11] | phosphorylation enrichment [12] | phosphorylation enrichment [13] | SH2 binding enrichment [14] | SH2 binding enrichment [15] | SH2 binding enrichment [16] |
| --- | --- | --- | --- | --- | --- | --- | --- | --- | --- | --- | --- | --- | --- | --- | --- | --- |
| GVRYTYTIDGS [DCX_Y105_I104T] | 0.986 | 0.562 | 0.623 | 0.521 | 0.758 | 0.429 | 1.08 | 0.543 | 0.483 | 0.981 | 0.447 | 0.634 | 0.56 | 1.07 | 5.17 | 1.43 |
| GVTLLCYGRYN [ADGRD1_Y85_Y85C] | 1.31 | 0.707 | 0.682 | 0.435 | 0.908 | 0.563 | 1.55 | 0.708 | 0.508 | 1.23 | 0.397 | 0.975 | 0.97 | 0.753 | 0.806 | 0.486 |
| GYCSWYRGWAP [TIMP3_Y195] | 1.38 | 0.8 | 0.712 | 0.807 | 1 | 0.691 | 1.53 | 0.671 | 1.25 | 1.32 | 0.975 | 1.04 | 1.33 | 0.655 | 0.715 | 0.502 |
| GYQPDYGQPAG [SYP_Y278] | 0.701 | 0.442 | 0.378 | 0.465 | 0.551 | 0.38 | 0.671 | 0.384 | 0.409 | 0.564 | 0.334 | 0.556 | 0.342 | 0.657 | 0.702 | 0.52 |
| GYQPEYGQPAG [SYP_Y278_D277E] | 0.662 | 0.451 | 0.451 | 0.401 | 0.659 | 0.487 | 0.851 | 0.426 | 0.419 | 0.725 | 0.467 | 0.466 | 0.443 | 0.801 | 0.553 | 0.495 |
| HCFAAYFQQGD [GPI_Y351_R347C] | 1.72 | 1.05 | 0.906 | 0.914 | 1.28 | 1.08 | 2.51 | 0.755 | 0.748 | 2.05 | 1.03 | 1.98 | 1.23 | 0.984 | 0.929 | 0.673 |
| HFGCVYRGTLL [MET_Y1093_H1094R] | 1.44 | 1.04 | 0.87 | 0.884 | 1.06 | 0.702 | 1.66 | 0.862 | 0.607 | 1.77 | 0.573 | 1.28 | 1.97 | 0.868 | 0.963 | 0.565 |
| HKLSSYEFDFE [BTK_Y40_Y39S_YF] | 1.83 | 0.902 | 0.75 | 0.889 | 0.844 | 0.664 | 1.51 | 0.777 | 0.565 | 2.13 | 0.865 | 1.43 | 1.09 | 0.974 | 0.719 | 3 |
| HLEKKYVRRDS [CSF1R_Y708] | 2.92 | 1.61 | 2.23 | 2.42 | 0.997 | 1.67 | 4.2 | 1.64 | 1.23 | 6.5 | 6.59 | 2.1 | 4.16 | 1.02 | 1.25 | 0.876 |
| HLVLNYGVCFC [JAK2_Y613_V617F] | 2.91 | 1.67 | 2.33 | 1.2 | 1.77 | 0.982 | 2.32 | 1.11 | 1.04 | 1.53 | 0.575 | 1.29 | 0.914 | 0.884 | 1.15 | 0.757 |
| HMRLRYLAAEE [CEP120_Y884_Q879H] | 1.22 | 0.587 | 0.552 | 0.412 | 0.939 | 0.75 | 1.89 | 0.722 | 0.53 | 1.03 | 0.452 | 1.3 | 0.659 | 1.14 | 1.39 | 1.18 |
| HPYNSYTYPRL [PAK5_Y316_S312P] | 1.2 | 0.731 | 0.531 | 0.998 | 0.962 | 0.674 | 0.875 | 0.968 | 0.984 | 0.429 | 2.57 | 0.374 | 1.3 | 0.813 | 0.677 | 7.32 |
| HQEPVYSVAFS [TBL1X_Y509] | 4.16 | 25.8 | 31.1 | 4.88 | 3.89 | 24.1 | 2.74 | 15.6 | 14.2 | 0.688 | 14.5 | 30.7 | 9.13 | 1.08 | 0.856 | 0.533 |
| HQKKPYCHAHN [NRAP_Y53] | 1.82 | 1.08 | 0.8 | 0.983 | 2.09 | 1.85 | 1.62 | 0.828 | 1.05 | 3.5 | 0.623 | 2.3 | 0.591 | 1.64 | 1.79 | 1.29 |
| HRGFLYLAIEY [TEK_Y899_Y897F] | 1.5 | 0.986 | 0.541 | 0.549 | 0.891 | 0.791 | 1.76 | 0.54 | 0.743 | 1.49 | 0.703 | 1.47 | 0.541 | 1.15 | 0.77 | 0.45 |
| HRGSLYLAIEY [TEK_Y899_Y897S] | 1.87 | 0.819 | 0.776 | 0.581 | 1.3 | 0.853 | 2.15 | 0.58 | 0.798 | 2.2 | 0.834 | 2.14 | 0.734 | 0.646 | 0.501 | 0.375 |
| HRNGMYGLHQD [SGSH_Y89_Q85R] | 0.515 | 0.39 | 0.51 | 0.485 | 0.421 | 0.432 | 0.428 | 0.49 | 0.294 | 0.626 | 0.396 | 0.502 | 0.389 | 0.939 | 0.751 | 0.631 |

| Sequence | phosphorylation enrichment [1] | phosphorylation enrichment [2] | phosphorylation enrichment [3] | phosphorylation enrichment [4] | phosphorylation enrichment [5] | phosphorylation enrichment [6] | phosphorylation enrichment [7] | phosphorylation enrichment [8] | phosphorylation enrichment [9] | phosphorylation enrichment [10] | phosphorylation enrichment [11] | phosphorylation enrichment [12] | phosphorylation enrichment [13] | SH2 binding enrichment [14] | SH2 binding enrichment [15] | SH2 binding enrichment [16] |
| --- | --- | --- | --- | --- | --- | --- | --- | --- | --- | --- | --- | --- | --- | --- | --- | --- |
| HSFNSYTFPRL [PAK5_Y316_YF] | 1.78 | 0.802 | 0.629 | 0.59 | 0.958 | 0.489 | 1.74 | 0.407 | 0.525 | 1.31 | 0.55 | 0.849 | 0.374 | 0.699 | 0.494 | 0.481 |
| HSFQCYGRNEA [ENTPD3_Y262] | 1.23 | 0.875 | 1.04 | 0.761 | 1.18 | 0.759 | 1.28 | 0.711 | 0.797 | 0.594 | 0.585 | 0.736 | 0.417 | 0.945 | 0.82 | 0.529 |
| HSGIYYKPESL [L2HGDH_Y103] | 1.59 | 6.97 | 6.24 | 5.66 | 4.95 | 0.613 | 0.984 | 4.78 | 6.44 | 2.35 | 9.79 | 27.1 | 3.78 | 0.925 | 0.563 | 0.601 |
| HSRTRYERNIE [F2_Y434] | 1.08 | 0.851 | 0.531 | 0.835 | 0.663 | 1.14 | 0.986 | 0.465 | 0.766 | 0.742 | 0.763 | 0.929 | 0.683 | 1.31 | 1.37 | 0.752 |
| ICFSDYVEVAD [PHACTR1_Y525_R521C] | 2.01 | 1.81 | 1.42 | 2.34 | 2.26 | 0.609 | 1.55 | 0.555 | 0.698 | 1.28 | 0.459 | 0.985 | 0.549 | 0.607 | 0.515 | 0.467 |
| IDDLEYLHSQG [STK11_Y166_G163D] | 1.22 | 0.638 | 0.777 | 0.676 | 0.737 | 0.61 | 1.24 | 0.581 | 0.531 | 0.865 | 0.572 | 0.636 | 0.578 | 0.615 | 0.57 | 0.471 |
| IDLEKYKLLPE [DHFR_Y157] | 0.956 | 0.528 | 0.738 | 0.546 | 0.683 | 0.51 | 1.2 | 0.511 | 0.433 | 0.92 | 0.484 | 0.775 | 0.39 | 0.844 | 0.718 | 0.486 |
| IDPFIYTPFGS [CYP3A4_Y432_YF] | 0.927 | 0.686 | 0.549 | 0.584 | 0.779 | 1.67 | 1.12 | 6.96 | 5.82 | 0.73 | 2.86 | 0.773 | 6.49 | 0.861 | 1.06 | 0.604 |
| IDPYIYTPFGS [CYP3A4_Y432] | 1.43 | 0.702 | 0.701 | 2.44 | 1.66 | 1.9 | 0.956 | 7.45 | 5.71 | 2.38 | 3.67 | 0.865 | 6.67 | 0.775 | 0.868 | 0.713 |
| IEDNEYTAREG [HCK_Y411] | 1.56 | 0.637 | 0.491 | 0.722 | 0.759 | 0.515 | 1.33 | 0.576 | 0.588 | 1.33 | 0.519 | 1.08 | 0.67 | 0.803 | 0.666 | 0.539 |
| IEELTYVIKQD [STX5_Y137_I138V] | 1.23 | 0.643 | 0.659 | 0.515 | 0.954 | 0.54 | 1.26 | 0.494 | 0.528 | 1.18 | 0.363 | 0.705 | 0.691 | 0.654 | 0.602 | 0.354 |
| IENKLYGMSDS [RET_Y1062_P1067S] | 0.805 | 0.464 | 0.524 | 0.484 | 0.511 | 0.646 | 0.948 | 0.438 | 0.543 | 1.08 | 0.547 | 0.678 | 0.614 | 0.706 | 0.663 | 0.451 |
| IEPVIDVVQRR [ANOS1_Y217_Y217D] | 1.02 | 0.379 | 0.566 | 0.393 | 0.592 | 0.354 | 0.98 | 0.39 | 0.459 | 0.638 | 0.36 | 0.624 | 0.258 | 0.848 | 0.517 | 0.608 |
| IFETDYFQKGG [INSR_Y1189_R1191Q_YF] | 1.24 | 0.421 | 0.401 | 0.468 | 0.876 | 0.358 | 1.01 | 0.502 | 0.473 | 0.981 | 0.386 | 0.662 | 0.492 | 0.948 | 0.438 | 0.492 |
| IGRGSYAKVLL [PRKCZ_Y263] | 0.611 | 0.363 | 0.367 | 0.348 | 0.394 | 0.375 | 0.545 | 0.384 | 0.419 | 0.458 | 0.452 | 0.468 | 0.34 | 0.996 | 11.5 | 5.41 |
| IGSHAYGDQFR [IDH1_Y135_R132S_YF] | 0.527 | 0.32 | 0.389 | 0.518 | 0.51 | 0.394 | 0.556 | 0.464 | 0.498 | 0.477 | 0.377 | 0.363 | 0.353 | 0.892 | 0.96 | 0.425 |
